Measurements taken from publication doi:10.1101/2020.10.28.360099 (bioRxiv, 2020).

B1: jack bean asparaginyl endopeptidase 1 (CeAEP1) (enzyme, Canavalia ensiformis (jack bean), UniProt P49046 36-475, looked up)
chain: EVGTRWAVLVAGSNGYGNYRHQADVCHAYQLLIKGGVKEENIVVFMYDDIAYNAMNPRPGVIINHPQGPDVYAGVPKDYTGEDVTPENLYAVILGDKSKVKGGSGKVINSNPEDRIFIFYSDHGGPGVLGMPNAPFVYAMDFIDVLKKKHASGGYKEMVIYIEACESGSIFEGIMPKDLNIYVTTASNAQENSFGTYCPGMNPPPPEEYVTCLGDLYSVSWMEDSETHNLKRETVQQQYQSVRKRTSNSNSYRFGSHVMQYGDTNITAEKLYLYHGFDPATVNFPPHNGNLEAKMEVVNQRDAELLFMWQMYQRSNHQPEKKTHILEQITETVKHRNHLDGSVELIGVLLYGPGKSSSVLHSVRAPGLPLVDDWTCLKSMVRVFETHCGSLTQYGMKHMRAFGNVCNSGVSKASMEEACKAACGGYDAGLLYPSNTGYSA
modifications: succinimide intermediate (SNN) modelled at Asp157

Legend:
[1] = target: recombinant jack bean conA precursor (pro-conA) (Canavalia ensiformis (jack bean)); assay: crystal structure
[2] = target: the molecule itself; assay: crystal structure

Molecule	stoichiometry N [1]	stoichiometry N [2]
recombinant jack bean conA precursor (pro-conA) (natural protein)	2	–
B1	–	2
